The source of these data is US20110008841A1.

For assay [1], the target named is huIL-17RA-FLAG-polyHis (human) (UniProt Q96F46). The assay can be described thus: Luminex binning; huIgG on bead 72 as capture, 2nd mAb A [D00012 FIG. 16B].
For assay [2] the target is unchanged. Briefly: Luminex binning; huIgG on bead 72 as capture, 2nd mAb B [D00012 FIG. 16B].
Assay [3] shares this target. Briefly: Luminex binning; huIgG on bead 72 as capture, 2nd mAb C [D00012 FIG. 16B].
Assay [4] has the same target. The assay can be described thus: Luminex binning; huIgG on bead 72 as capture, 2nd mAb D [D00012 FIG. 16B].
Assay [5] has the same target. Briefly: Luminex binning; huIgG on bead 72 as capture, 2nd mAb E [D00012 FIG. 16B].
Assay [6] has the same target. The assay can be described thus: Luminex binning; huIgG on bead 72 as capture, 2nd mAb F [D00012 FIG. 16B].
The target is the same in assay [7]. Briefly: Luminex binning; huIgG on bead 72 as capture, 2nd mAb M [D00012 FIG. 16B].
Assay [8] shares this target. The assay can be described thus: Luminex binning; huIgG on bead 72 as capture, 2nd mAb I [D00012 FIG. 16B].
For assay [9] the target is unchanged. The assay can be described thus: Luminex binning; huIgG on bead 72 as capture, 2nd mAb J [D00012 FIG. 16B].
Assay [10] shares this target. Briefly: Luminex binning; huIgG on bead 72 as capture, 2nd mAb K [D00012 FIG. 16B].
For assay [11] the target is unchanged. Briefly: Luminex binning; huIgG on bead 72 as capture, 2nd mAb L [D00012 FIG. 16B].
For assay [12] the target is unchanged. The assay can be described thus: Luminex binning; huIgG on bead 72 as capture, 2nd mAb N [D00012 FIG. 16B].
Assay [13] shares this target. Briefly: Luminex binning; huIgG on bead 72 as capture, 2nd mAb O [D00012 FIG. 16B].
Assay [14] shares this target. The assay can be described thus: Luminex binning; huIgG on bead 72 as capture, 2nd mAb Q [D00012 FIG. 16B].
For assay [15] the target is unchanged. Briefly: Luminex binning; huIgG on bead 72 as capture, 2nd mAb R [D00012 FIG. 16B].

Regarding huIgG (antibody), the normalized MFI is 84 in assay [1]; 37 in assay [2]; 54 in [3]; 123 in [4]; 26 in [5]; 140 in assay [6]. Further, the normalized MFI was 32 in assay [7]; 22 in [8]; 35 in assay [9]; 100 in [10]; 34 in [11]; 56 in [12]. The results for the normalized MFI in [13], in [14] and in assay [15] were 95, 28 and 50, respectively.
